{"source": "paper PMC9751785", "about": "“Characterization and Identification of a novel chromosome-encoded metallo-β-lactamase WUS-1 in Myroides albus P34” (Frontiers in Microbiology, 2022)", "key": {"WUS-1": {"target": "T1, WUS-1 (Myroides albus, UniProt A0A6I3LH21, K23R)", "T1 construct": "gene bla; mature domain, signal peptide removed (predicted cleavage between 19 and 20, Ala/Gln); pCold I in E. coli BL21, His-tag cut with thrombin; zinc enzyme", "T1 sequence (A0A6I3LH21 entry or part of it K23R)": "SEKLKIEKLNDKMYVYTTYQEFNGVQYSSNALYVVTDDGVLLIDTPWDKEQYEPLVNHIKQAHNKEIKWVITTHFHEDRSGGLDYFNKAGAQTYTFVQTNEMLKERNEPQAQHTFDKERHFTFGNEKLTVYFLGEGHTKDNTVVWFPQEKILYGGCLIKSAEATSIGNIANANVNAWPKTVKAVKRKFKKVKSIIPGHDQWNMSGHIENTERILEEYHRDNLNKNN", "test": "spectrophotometric imipenem hydrolysis, inhibition", "format": "biochemical"}, "[1]": {"system": "CC1(C)S[C@@H]2[C@H](NC(=O)C(C(=O)O)c3ccccc3)C(=O)N2[C@H]1C(=O)O", "test": "continuous spectrophotometric hydrolysis assay, Michaelis-Menten fit", "format": "biochemical, Myroides albus", "settings": "10 mM phosphate pH 7.4, 50 μM ZnCl2, 30 °C, SD within 15%", "from_the_text": "(§1) continuous spectrophotometric hydrolysis assay, Michaelis-Menten fit on WUS-1"}, "[2]": {"system": "Cc1nnc(SCC2=C(C(=O)O)N3C(=O)[C@@H](NC(=O)Cn4cnnn4)[C@H]3SC2)s1", "test": "continuous spectrophotometric hydrolysis assay, Michaelis-Menten fit", "format": "biochemical, Myroides albus", "settings": "10 mM phosphate pH 7.4, 50 μM ZnCl2, 30 °C, SD within 15%", "from_the_text": "as §1"}, "[3]": {"system": "C[C@@H](O)[C@H]1C(=O)N2C(C(=O)O)=C(SCCN=CN)C[C@H]12", "test": "continuous spectrophotometric hydrolysis assay, Michaelis-Menten fit", "format": "biochemical, Myroides albus", "settings": "10 mM phosphate pH 7.4, 50 μM ZnCl2, 30 °C, SD within 15%", "from_the_text": "as §1"}, "[4]": {"system": "CC1(C)S[C@@H]2[C@H](NC(=O)[C@H](C(=O)O)c3ccsc3)C(=O)N2[C@H]1C(=O)O", "test": "continuous spectrophotometric hydrolysis assay, Michaelis-Menten fit", "format": "biochemical, Myroides albus", "settings": "10 mM phosphate pH 7.4, 50 μM ZnCl2, 30 °C, SD within 15%", "from_the_text": "as §1"}, "[5]": {"system": "CC1(C)S[C@@H]2[C@H](NC(=O)[C@H](N)c3ccccc3)C(=O)N2[C@H]1C(=O)O", "test": "continuous spectrophotometric hydrolysis assay, Michaelis-Menten fit", "format": "biochemical, Myroides albus", "settings": "10 mM phosphate pH 7.4, 50 μM ZnCl2, 30 °C, SD within 15%", "from_the_text": "as §1"}, "[6]": {"system": "CO[C@@]1(NC(=O)Cc2cccs2)C(=O)N2C(C(=O)O)=C(COC(N)=O)CS[C@@H]21", "test": "continuous spectrophotometric hydrolysis assay, Michaelis-Menten fit", "format": "biochemical, Myroides albus", "settings": "10 mM phosphate pH 7.4, 50 μM ZnCl2, 30 °C, SD within 15%", "from_the_text": "as §1"}, "[7]": {"system": "C[C@@H](O)[C@H]1C(=O)N2C(C(=O)O)=C(S[C@@H]3CN[C@H](C(=O)N(C)C)C3)[C@H](C)[C@H]12", "test": "continuous spectrophotometric hydrolysis assay, Michaelis-Menten fit", "format": "biochemical, Myroides albus", "settings": "10 mM phosphate pH 7.4, 50 μM ZnCl2, 30 °C, SD within 15%", "from_the_text": "as §1"}}, "note": "pIC50: −log10 of the molar value.", "data": [{"molecule": "O=C(O)CN(CCN(CC(=O)O)CC(=O)O)CC(=O)O", "note": "[EDTA]", "values": [{"measurement": "pIC50", "setting": "WUS-1", "value": 4.15}]}, {"molecule": "WUS-1 (Myroides albus; K23R)", "values": [{"measurement": "Km", "setting": "[1]", "value": 581, "unit": "µM"}, {"measurement": "kcat", "setting": "[1]", "value": 1120, "unit": "s⁻¹"}, {"measurement": "kcat/Km", "setting": "[1]", "value": "1.93e+06", "unit": "M⁻¹ s⁻¹"}, {"measurement": "Km", "setting": "[2]", "value": 59.86, "unit": "µM"}, {"measurement": "kcat", "setting": "[2]", "value": 33.9, "unit": "s⁻¹"}, {"measurement": "kcat/Km", "setting": "[2]", "value": 570000, "unit": "M⁻¹ s⁻¹"}, {"measurement": "Km", "setting": "[3]", "value": 334.8, "unit": "µM"}, {"measurement": "kcat", "setting": "[3]", "value": 1340, "unit": "s⁻¹"}, {"measurement": "kcat/Km", "setting": "[3]", "value": "3.99e+06", "unit": "M⁻¹ s⁻¹"}, {"measurement": "Km", "setting": "[4]", "value": 827.4, "unit": "µM"}, {"measurement": "kcat", "setting": "[4]", "value": 703, "unit": "s⁻¹"}, {"measurement": "kcat/Km", "setting": "[4]", "value": 850000, "unit": "M⁻¹ s⁻¹"}, {"measurement": "Km", "setting": "[5]", "value": 290.2, "unit": "µM"}, {"measurement": "kcat", "setting": "[5]", "value": 2920, "unit": "s⁻¹"}, {"measurement": "kcat/Km", "setting": "[5]", "value": "1.01e+07", "unit": "M⁻¹ s⁻¹"}, {"measurement": "Km", "setting": "[6]", "value": 44.33, "unit": "µM"}, {"measurement": "kcat", "setting": "[6]", "value": 14.2, "unit": "s⁻¹"}, {"measurement": "kcat/Km", "setting": "[6]", "value": 320000, "unit": "M⁻¹ s⁻¹"}, {"measurement": "Km", "setting": "[7]", "value": 147.4, "unit": "µM"}, {"measurement": "kcat", "setting": "[7]", "value": 477, "unit": "s⁻¹"}, {"measurement": "kcat/Km", "setting": "[7]", "value": "3.24e+06", "unit": "M⁻¹ s⁻¹"}]}]}
